Results published in patent publication US20230399376A1 (BAKER HEART AND DIABETES INSTITUTE, published 2023).

Columns and labels:
[1] = target: GPIIb/IIIa on non-activated (resting) human platelets (human, UniProt P08514 32-1039; P05106 27-788); assay: flow cytometry on human platelets, anti-Penta-His Alexa Fluor 488 detection
Method: (§1) Binding of scFv-CD39 to activated human platelets was evaluated by flow cytometry: 0.1 mg/mL of scFv-CD39, 0.2 mg/mL of scFvₘᵤₜ-CD39 (both activity matched), and 0.038 mg/mL of anti-CD41 scFv (equimolar amount of the scFv in scFv-CD39) were tested.
(§2) Citrated blood from volunteers was centrifuged at 180 g for 10 minutes. The platelet-rich plasma (PRP) was collected and stored at 37° C. The remainder (infranatant) was centrifuged at 2500 g for 10 minutes, and its supernatant was collected as platelet-poor plasma (PPP).
(§3) PRP was diluted 1:20 in phosphate-buffered saline (PBS; 100 mg/L calcium chloride, 100 mg/L magnesium chloride). To investigate the binding of scFv-CD39 constructs, the diluted PRP ([…]) was either preincubated with a final concentration of […] ADP or […] of PBS for 15 minutes before addition of the constructs. The binding was then determined via a Penta-His Alexa Fluor-488-conjugated monoclonal antibody (Qiagen). To investigate the ecto-nucleoside triphosphate diphosphohydrolase efficiency, PRP was preincubated with scFv-CD39 constructs before administration of […] ADP. Platelet activation status was measured by a phycoerythrin (PE)-labeled anti-P-selectin antibody (BD Bioscience). Samples were fixed using […] Cellfix (BD Bioscience) and analyzed on a FACS Calibur (BD Bioscience).

[2] = target: T1, activated glycoprotein GPIIb/IIIa on ADP-activated human platelets (human, UniProt P08514 32-1039; P05106 27-788); assay: flow cytometry on ADP-activated human platelets, anti-Penta-His Alexa Fluor 488 detection
T1 construct: also called integrin alphaIIbbeta3
Method: as §1, §2, §3

GPIIb/IIIa on non-activated (resting) human platelets, sequence (P08514 32-1039 limits assumed, chain 1 of 2): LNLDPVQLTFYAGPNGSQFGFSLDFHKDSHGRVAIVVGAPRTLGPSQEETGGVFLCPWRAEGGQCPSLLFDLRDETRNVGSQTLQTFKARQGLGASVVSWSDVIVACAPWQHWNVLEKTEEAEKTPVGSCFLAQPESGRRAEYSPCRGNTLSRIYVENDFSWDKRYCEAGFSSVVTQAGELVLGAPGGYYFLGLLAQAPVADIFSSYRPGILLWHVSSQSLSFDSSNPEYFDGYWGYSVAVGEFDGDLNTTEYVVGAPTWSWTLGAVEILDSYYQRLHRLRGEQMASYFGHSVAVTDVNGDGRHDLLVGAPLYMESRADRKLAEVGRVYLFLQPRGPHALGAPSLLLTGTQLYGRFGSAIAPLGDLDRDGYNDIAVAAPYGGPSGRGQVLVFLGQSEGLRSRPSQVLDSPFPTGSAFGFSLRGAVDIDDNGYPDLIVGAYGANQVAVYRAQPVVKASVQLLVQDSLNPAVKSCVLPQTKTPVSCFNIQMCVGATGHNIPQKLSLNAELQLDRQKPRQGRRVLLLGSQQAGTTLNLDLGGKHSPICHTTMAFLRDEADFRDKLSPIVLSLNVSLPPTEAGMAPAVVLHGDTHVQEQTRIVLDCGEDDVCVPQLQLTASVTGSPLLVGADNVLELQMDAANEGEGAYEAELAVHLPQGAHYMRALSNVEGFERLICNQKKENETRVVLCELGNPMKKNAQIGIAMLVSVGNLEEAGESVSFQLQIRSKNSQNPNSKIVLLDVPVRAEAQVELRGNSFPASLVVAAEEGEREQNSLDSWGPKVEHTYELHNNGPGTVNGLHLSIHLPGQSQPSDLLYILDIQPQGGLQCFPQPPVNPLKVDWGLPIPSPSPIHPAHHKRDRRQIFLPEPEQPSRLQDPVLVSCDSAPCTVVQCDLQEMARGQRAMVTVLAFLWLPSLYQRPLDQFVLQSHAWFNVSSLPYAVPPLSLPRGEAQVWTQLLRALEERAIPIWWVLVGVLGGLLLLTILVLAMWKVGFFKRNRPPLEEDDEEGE
GPIIb/IIIa on non-activated (resting) human platelets, sequence (P05106 27-788 limits assumed, chain 2 of 2): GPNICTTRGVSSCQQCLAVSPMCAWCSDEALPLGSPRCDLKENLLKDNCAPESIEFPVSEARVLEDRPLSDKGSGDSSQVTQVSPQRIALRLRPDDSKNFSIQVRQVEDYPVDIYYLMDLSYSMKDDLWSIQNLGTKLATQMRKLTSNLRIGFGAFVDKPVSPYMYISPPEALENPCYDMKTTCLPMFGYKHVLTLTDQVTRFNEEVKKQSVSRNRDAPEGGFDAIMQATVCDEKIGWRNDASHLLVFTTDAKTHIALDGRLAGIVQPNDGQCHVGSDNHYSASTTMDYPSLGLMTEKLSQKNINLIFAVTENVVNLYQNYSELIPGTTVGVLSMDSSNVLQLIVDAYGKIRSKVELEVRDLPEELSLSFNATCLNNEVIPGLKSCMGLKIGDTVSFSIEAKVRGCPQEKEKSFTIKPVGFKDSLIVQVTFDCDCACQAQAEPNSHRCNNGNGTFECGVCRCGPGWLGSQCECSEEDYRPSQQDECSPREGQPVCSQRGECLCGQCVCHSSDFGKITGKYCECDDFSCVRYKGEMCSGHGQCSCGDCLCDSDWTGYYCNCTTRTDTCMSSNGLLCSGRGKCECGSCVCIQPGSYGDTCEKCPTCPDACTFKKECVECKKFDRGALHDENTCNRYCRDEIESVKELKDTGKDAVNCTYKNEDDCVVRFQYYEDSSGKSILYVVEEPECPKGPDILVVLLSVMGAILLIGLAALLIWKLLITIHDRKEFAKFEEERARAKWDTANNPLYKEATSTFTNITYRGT
T1 sequence (P08514 32-1039 limits assumed, chain 1 of 2): as the sequence (P08514 32-1039 limits assumed, chain 1 of 2) above
T1 sequence (P05106 27-788 limits assumed, chain 2 of 2): as the sequence (P05106 27-788 limits assumed, chain 2 of 2) above

B1: scFvmut-CD39 (scFv)
chain: HHHHHHHHRRAVRSLVPSSDPLQCGGILAEVQLVQSGAEVNKPGASVKVSCKASGYTFTGYYMHWVRQAPGQGLEWMGWINPNSGGTNYAQKFQGWVTMTRDTSISTAYMELSRLRSDDTAVYYCARGRALYNANDRSPNWFDPWGQGTLVTVSSGSASAPTLKLEEGEFSEARVQAVLTQPPSVSVAPGQTARITCGGNNIGSKSVQWYQQKPGQAPVLVVYDDSDRPSGIPERFSGSNSGNMATLTISRVEAGDEADYYCQVWDSSSDHVVFGGGTKLTVLGGKPIPNPLLGLDSTLPETGGLEEAAATQNKALPENVKYGIVLDAGSSHTSLYIYKWPAEKENDTGVVHQVEECRVKGPGISKFVQKVNEIGIYLTDCMERAREVIPRSQHQETPVYLGATAGMRLLRMESEELADRVLDVVERSLSNYPFDFQGARIITGQEEGAYGWITINYLLGKFSQKTRWFSIVPYETNNQETFGALDLGGASTQVTFVPQNQTIESPDNALQFRLYGKDYNVYTHSFLCYGKDQALWQKLAKDIQVASNEILRDPCFHPGYKKVVNVSDLYKTPCTKRFEMTLPFQQFEIQGIGNYQQCHQSILELFNTSYCPYSQCAFNGIFLPPLQGDFGAFSAFYFVMKFLNLTSEKVSQEKVTEMMKKFCAQPWEEIKTSYAGVKEKYLSEYCFSGTYILSLLLQGYHFTADSWEHIHFIGKIQGSDAGWTLGYMLNLTNMIPAEQPLSTPLSHSTTRGGPEQKLISEEDLNSAVDHHHHHH
notes: Non-targeting control construct; also called non-targ-CD39; Non-targCD39; not shown: 6xHis-tag used for detection
binding result [1]: no binding (tested: 0.2 mg/mL)
binding result [2]: no binding (tested: 0.2 mg/mL)
